These results are taken from article PMC7946891, “Versatility in acyltransferase activity completes chicoric acid biosynthesis in purple coneflower” (Nature Communications, 2021).

Substrate in data set [1]: COc1cc(/C=C/C(=O)SCCNC(=O)CCNC(=O)[C@H](O)C(C)(C)COP(=O)(O)OP(=O)(O)OC[C@H]2O[C@@H](n3cnc4c(N)ncnc43)[C@H](O)[C@@H]2OP(=O)(O)O)ccc1O
The data set can be described thus: UPLC-DAD endpoint assay, Michaelis-Menten. In kind it is biochemical, Echinacea purpurea. Conditions: PBS pH 7.0, 30 °C.

Substrate in data set [2]: O=C(O)[C@]1(O)C[C@@H](O)[C@@H](O)[C@H](O)C1
The data set can be described thus: UPLC-DAD endpoint assay, Michaelis-Menten. Conditions: 50 μM caffeoyl CoA, PBS pH 7.0, 30 °C. Type of data set: biochemical, Echinacea purpurea.

Substrate in data set [3]: CC(C)(COP(=O)(O)OP(=O)(O)OC[C@H]1O[C@@H](n2cnc3c(N)ncnc32)[C@H](O)[C@@H]1OP(=O)(O)O)[C@@H](O)C(=O)NCCC(=O)NCCSC(=O)/C=C/c1ccc(O)cc1
Description: UPLC-DAD endpoint assay, Michaelis-Menten. Type of data set: biochemical, Echinacea purpurea. Conditions: PBS pH 7.0, 30 °C.

Substrate in data set [4]: CC(C)(COP(=O)(O)OP(=O)(O)OC[C@H]1O[C@@H](n2cnc3c(N)ncnc32)[C@H](O)[C@@H]1OP(=O)(O)O)[C@@H](O)C(=O)NCCC(=O)NCCSC(=O)/C=C/c1ccc(O)c(O)c1
Description: UPLC-DAD endpoint assay, Michaelis-Menten. Type of data set: biochemical, Echinacea purpurea. Conditions: PBS pH 7.0, 30 °C.

Substrate in data set [5]: O=C(O)C(O)C(O)C(=O)O
The data set can be described thus: purified protein. The following applies: 50 μM caffeoyl CoA, PBS pH 7.0, 30 °C, pH 7.0.

Substrate in data set [6]: O=C(O)C(O)C(O)C(=O)O
The data set can be described thus: purified protein, by the assay type. Set-up: Michaelis-Menten kinetics of recombinant EpHTT, product quantified by UPLC-DAD. The following applies: pH 7.0; 16.0 °C.

Substrate in data set [7]: O=C(/C=C/c1ccc(O)c(O)c1)O[C@@H](C(=O)O)[C@@H](O)C(=O)O
Description: purified protein. In kind it is biochemical, Echinacea purpurea. Conditions: 200 μM chlorogenic acid as acyl donor, 10 mM Na2HPO4, pH 4.0, 30 °C.

Substrate in data set [8]: O=C(/C=C/c1ccc(O)c(O)c1)O[C@@H]1O[C@H](CO)[C@@H](O)[C@H](O)[C@H]1O
The data set can be described thus: purified protein. In kind it is biochemical, Echinacea purpurea. The following applies: 200 μM caftaric acid as acyl acceptor, 10 mM Na2HPO4, pH 4.0, 30 °C.

Substrate in data set [9]: O=C(/C=C/c1ccc(O)c(O)c1)O[C@@H]1C[C@](O)(C(=O)O)C[C@@H](O)[C@H]1O
Description: purified protein. Conditions: 200 μM caftaric acid as acyl acceptor, 10 mM Na2HPO4, pH 4.0, 30 °C, pH 4.0.

B1: EpHQT (Echinacea purpurea) (protein)
chain: MNITITKSSLIPPSETLPGSETRLWTSNLDLVVGRIHILTVYFYRPNGSSNFFDPNAMKQALADVLVSFYPMAGRLGRDESGRVVINCNGEGALFVEAEADSCLDDFGEFTPSPELRSLTPAVDYSGDVSSYPLFFAQVTHFKCGGVSLGCGVFHTLSDGLSSLHFINTWSDVARGLSVAIPPFIDRTLLRAREPPTPTHDHVEYHPPPTMTMLNTIQKPGPLSKSSTTMLKLTLDQLNTLKAKTKTEGGPSYSTYEILAAHIWRCACKARGLPDDQLTKLYVATDGRSRLSPHLPRGYLGNVVFTATPVATSGALTSDSLQNAAKLIHTTLTQMDNEYLRSAIDYLEIQPDLSALIRGPSYFASPNLNINAWSRLPVHDADFGWGRPVFMGPAIILYEGTVYVLPSPNNDRSVSLAVCLDAKEQPLFEKYLYEF
notes: full-length CDS, N-terminal 6xHis (pDEST17), E. coli BL21(DE3), Ni-NTA purified
As usually defined, the Km is the substrate concentration at which the rate is half of its maximum. In general, kcat refers to the number of substrate molecules converted per active site and unit of time at saturation. As for B1, the Km was determined as 38.623 ± 14.588 µM in data set [1] (1 mM quinic acid), 576.167 ± 72.176 µM in [2], 70.547 ± 43.952 µM in data set [3] (1 mM quinic acid) and 7.231 ± 1.577 µM in [4] (1 mM quinic acid). For the same protein, the kcat in data set [1] (1 mM quinic acid) is 0.0007 ± 0.00009 s⁻¹; in data set [2] it was 0.157 ± 0.007 s⁻¹; in data set [3] (1 mM quinic acid) it was 0.060 ± 0.036 s⁻¹; in [4] (1 mM quinic acid) it was 0.111 ± 0.005 s⁻¹.

B2: EpHTT (Echinacea purpurea) (protein)
chain: MKVVVRESTVVRPAEESPPRKLWNSSLDLTNLNGHTLVVYFYRPNGASDFFNTKLMKDTLSRMLVAFYPFAGRFKYDQHGRVETDCQGQGALFLEAESDGLIDDFGDFLPTLEYLKLIPAIDYSKGIDSFPLMVFQVTFFKCGGVSLGVGMHHHLVDGMSGLHFTNTWADMTRGLDITLPPFIDRTLLRPRDPPRPVFEHIEYQSDPTPLKVSLDETKTSFSMFKLTRNQLALLKEKAKEEGNKISYTTFEMFSAHVWKCVCKARGLPDDVETKLYLPVDGRARLQPPLPPGYFGNVIFDAAVIATAGDIKSKPIWYAAGKIHDSLARMNNDYLRSAIDYLEQHNCKKPYVDYNTNLRINSWARLPIHDADFGWGRPIFMGRTGLPSVGRVYVLPSAMDDGSLSIILGLEAEEMKVFGNLLYAI
notes: as for B1
In general, kcat/Km refers to the turnover number divided by the Michaelis constant. As to B2, the Km in [5] was found to be 841.967 ± 35.474 µM; in [1] (0.5 mM tartaric acid), 48.010 ± 11.329 µM; in data set [3] (0.5 mM tartaric acid) it was 22.027 ± 3.818 µM; in data set [4] (0.5 mM tartaric acid), 34.760 ± 6.832 µM; in data set [6], 458.600 ± 80.431 µM. Besides, the kcat in data set [5] was found to be 0.685 ± 0.016 s⁻¹; in data set [1] (0.5 mM tartaric acid), 0.122 ± 0.011 s⁻¹; in data set [3] (0.5 mM tartaric acid), 0.007 ± 0.001 s⁻¹; in [4] (0.5 mM tartaric acid), 0.588 ± 0.064 s⁻¹; in data set [6] it was 0.176 ± 0.052 s⁻¹. For the same protein, the kcat/Km in data set [6] was determined as 390 ± 122 M⁻¹ s⁻¹.

B3: EpCAS (Echinacea purpurea) (protein)
chain: ASTIVKNLPGFHGDLPCTIETGYIGVGADDEVQFFYYFVESERDPSRDPLIYYLTGGPGTTALYPFLFQIGPLSINYDNSTWEKLTLELNPYSWSKAANVLFVDLPAGTGFSYGTTYEATKSSDSISAQQGYEFLIKWLEENPRFLNNSLYIAGTSYMGIVVPVVTLEVYKGNERGDQPQLNVKGYAISSPLTDKFSDFNSRFEFAHRAALISDDIYKSAKNNCGGNYIYNAVENTECARSLQRFEECTSRINEANILDPLCDEDSQDPVCGEVGDKYLKYYGNDKEVQKALGVREGTIEEFVKTNQSIHYLINKEDQDCYSYDIFSTIIYHKSLVSRNCQALILSADHDFTFPYVGVEQWITSLNLPLESPWNPWFVNNQVAGYRLKYARNGYSLTYATVKGAGHSIALYKPRETWVILDEWLASNSYLSDS
notes: full-length cDNA, C-terminal 6xHis (pESC-His), S. cerevisiae BY4741, Ni-NTA purified; vacuolar targeting peptide Met1-His24
For the protein B3, the Km worked out at 53.910 ± 0.613 µM in data set [7], 121.400 ± 12.163 µM in [8] and 83.910 ± 7.811 µM in data set [9]. Also, the catalytic constant (kcat) in [7] worked out at 0.005 ± 0.00002 s⁻¹; in data set [8], 1.09e-05 ± 8.7e-07 s⁻¹; in data set [9], 0.005 ± 0.0003 s⁻¹.
